Experiment: soluble on expression in E. coli; label from the status in PepcDB or PDB records

| Sequence | soluble on expression in E. coli |
| --- | --- |
| MGSDKIHHHHHHTEETAKVVPMAVITPAINQLTDQEKAEGWALLFDGKTTKGWRGAHKDAFPDHGWMVKDGELIVQKSDGSESTNGGDIVTEGEYSAFEFSVDFKITEGANSGIKYFVTEQEKQKGSAYGLEFQLLDDAKHPDAKLYTTFPGSRTLGSLYDLKKSENIHFNGVGEWNTAVVKVFPNNHVEHWLNGVKVLEYERGSKEFRDLVKGSKYADPSYNAGGAFGEAPKGHILLQDHGDEVAFRNIKVKELK | not soluble |
| MSLDDFCNIPKGKEVVFGFNVPQSGAYADEGMDELKAYQLAVKHLNGEGDGGMLKTMKPLALKGNGVLGKKVTFVSGDTQTKADQARATAKRMIEKDGAIMITGGSSSAEAVAVQSLCQDVGVIFMAGLTHSNDTTGKDKRAYGFRHFFNAYMSGVALGPVLAEAYGKDRAAYHLTADYTWGWTQEESMKDATEKQGWKTVKAVRTPLGAADFSQYITPVLNSGADVLILNHYGKDMINSLTQAVQFGLRDKMANGKKFEIVVPLFSELMAQGAGDAIKGIYGTANWDWKLEDAATSAFTKSFGAAYGTPPSQAAQTCYVQAILYADAVERAGTFNPSKVIAALEGFEFDGLGNGKTLYRAADHQCFKDVLVVQGKEKPKDKFDLLEVKKIVPASQVTYDPSIFGGELGSKDAKAEGHHHHHH | soluble |
| MGSDKIHHHHHHMRPATALSVTACGPVSTSRPRAASRAAIRLSSGERRFLIDIDVSKPRLRPMTAMTPTLALERSAASGKVAPTPADLSITVRDRRFGRNSPPGRWWLAGDPVATAWHNALSATFPRGEAFFIEAVKAHREGASPKLEAEIRAFVKQEINHTREHIAFNRAAENAGYDIARIDKRVEEMLALTKDRPVILNLAATMALEHYTAMMAHEFLANPAHFAGAEQEAADMWRWHAIEEIEHKGVAYDTWLHATRDWSRWKRWKVKSLMMVVVTKNFITHRVEDTLDLLAQDGLTGAKWKWRLAAYLLWKPGVIRRILPAWLGYFLPGFHPWKHDDRALIGKADSEFTDAVMPG | not soluble |
| MAHHHHHHMRNSFFPMLCEKQSTPELEAMPLYLPDTVVLQLHRHDGEAEFADYMDANSLTFVALGDAERPALCGIDATAQLHYEGAQRTLVSAAGIVSGIRRRRLRVPFGMSELSELLRRAYNTEKGNRNNSLTGSTETVLLTHLFSDAVWAEESFHCLSTTRRVGNILGSTGIGSATRDLAVERWRLDQDIMELRDELMIARTVYDYRHCGYESNRSISGMEEEGMKRVNAIQSNREEERKWQLSVFCERAKHEAEKMIKELEQRGGATLDELQKTLEAKKRESSALQADRENRIWEYEHTLEKIRTRKQDEESASERLRQAMQQLEQELSLRQSAIETREQQLEMVQLDGARGREAIMRERHSIEAVSPAEAVDPSD | not soluble |
| MRGSHHHHHHGSADAYPSKAIRVIVPFAPGGSTDIIARLVTQRMSQELGQPMVVENKGGAGGAIGASEAARAEPDGYTLSIATVSTMAVNPACRPKDLPYDPIKDFQPVTNFANTANVVAVNPKFPAKDFKGFLEELKKNPGKYSYGSSGTCGVLHLMGESFKMATGTDIVHVPYKGSGPAVADAVGGQIELIFDNLPSSMPQIQAGKLRAMAIAWPTRIDAIKDVPTFADAGFPVLNQPVWYGLLAPKGTPMDVVNKLRDAAVVALKDPKVIKALDDQGSAPSGNTPEEFAKEIKEQYDWAQDVVKKQNIKLD | soluble |
| MAHHHHHHMLPFSYRVLMRGVSAVSGALSVALQHRALAGTTRSFSSSRPVWLAPAAPTKQAPPAMGGDTDAEETHPDFQPRMVSSDLAQDEIAMIKKDIDDTIRDEDVVVFIKGVPEAPMCAFSKRMIDVMEALGVEYTSFDVLAHPVVRSYVKEVSEWPTIPQLFVKGEFAGGVDIILKMAESGDLQMLLDQKSIKHRDTKP | soluble |
| MSLSRLSEKKGFNFNIIKNDPLDGHKGTNIGSISLDNIAPVFIDIENQKAFVDIGGMHARAEVEKGVKWITDKSQVEGEEAKAYWLCWVTTERSEQGPYYAGVTACYLLVNKSIRRGYKSMPEHVNMMDKSMKHQFIIDQIGDDNKQILKEFLQNHNVEMWNNSSEELYRTFEEGHHHHTTDPNSSSVDKLAAALEHHHHHH | soluble |
| MIGVASSAVFDLLASDAVFQSQGEEEYRKFQQKNLHVPLPKGIAFPFIKRLLSVNDLSVDPTDPLVEVILLPRNDPDTGLRVLKTIEHYELGMTRAIFMQGKSPYEYIPALNIALFLSGDKKDVEAAIRAGYPAGQVLDSKFEDDETDKTLRIAFDFDGVLAGDESETIMQASGLSEFHSHEVKNVMQPHNPGPLKEFMVRISKIQSVEEKHKKLNPKYENRIRVSIVTARNAPSHERAMNTLKSWGVMANDAFFLGGIEKGKILSVLKPHIFFDDQSGHLKSTSAVAPSVHIPFGITNHVSTVDAIEPEADQVQQVV | not soluble |
| MSLNNKGSGLTPAQALDKLDALYEQSVVALRNAIGNYITSGELPDENARKQGLFVYPSLTVTWDGSTTNPPKTRAFGRFTHAGSYTTTITRPTLFRSYLNEQLTLLYQDYGAHISVQPSQHEIPYPYVIDGSELTLDRSMSAGLTRYFPTTELAQIGDETADGIYHPTEFSPLSHFDARRVDFSLARLRHYTGTPVEHFQPFVLFTNYTRYVDEFVRWGCSQILDPDSPYIALSCAGGNWITAETEAPEEAISDLAWKKHQMPAWHLITADGQGITLVNIGVGPSNAKTICDHLAVLRPDVCYIGHCGGLRKVRPLADYVLAHAYLRDDHVLDAVLPPDIPIPSIAEVQRALYDATKLVSGRPGEEVKQRLRTGTVVTTDDRNWELRYSASALRFNLSRAVAIDMESATIAAQGYRFRVPYGTLLCVSDKPLHGEIKLPGQANRFYEGAISEHLQIGIRAIDLLRAEGDRLHSRKLRTFNEPPFREGHHHHHH | soluble |
| MGSDKIHHHHHHMIYIGLPQWSHPKWVRLGITSLEEYARHFNCVEGNTTLYALPKPEIVARWYEQTHDDFRFCFKFPATISHQAALRHCDELSSEFFARLAPLASRIGQYWLQLPATFGPRDLPALWHFLDGLPKDFTYGVEVRHPEFFAKEEAEQQLNRGLHERNVNRVILDSRPVHSAAATSPAMIDAQQKKPKVPVHAVMTARQPMVRFIGGDDMAHNRELFRVWLQTLAKWHQSGTPWLFLHTPDIAFAPALVDTLWGDLRAALPAAGNAPSIPQQSSLF | not soluble |
| MSLSFELNPIFKRPSVSRELTKRFFFSANNGTRIILFQDSTIRWSFSSDNDHYQSMALRDSDMDVTGAIISDPGDYLCLYNSHQIRVIEIPWGLTNVDEISNSMASSLQERVYNFNEDKLSVKQVLFHPLSKSSPFLVVLFSGSQIAFVDLKNVFKSSDIPIDCFLNLTDSNVMGIDNRVENIQYVVFADDCLSLYSLTDTDVYCFYPCLPPVASLSKNRVDELINKSIVLYENLGIDADDIVRKNVIKQLQLASSLRKKIEEFENANGEVEVNVEIDLEFRQTKAQGYFSISPYPESLYTCTGKQISVLPIGEGNELFLVSFDNGTVLVVFKDKESTMSWDVNDYSFNNSFTLVEIIKFKPEELSNMVVLQGELGKFVVSGEKSTILVDTTKWSSVISKCIRDNDLRPLVGLEMKSTITHINSDMQINSCGIWNSGEAKSLLLVDTNVVVGYQLFKKEVEFKPESAEEISTELENFTLDKFTVPENELKAANYKFQEAVSVPYSKVIPANIKQVPFGSNAMEEQLKILNDISRDVGSKIVQGQSLGLMLYDRLLEQQDKLSEQLIITNKILIRAKKVQGDYPAQLSKLDEKLKKQEHLEKILLKMESNLNTIQESQKLKSLPLSEKEIQLFKELRSQILLFNNFVHKQKDQKQNIQFLKKELQKIIDISRSESSKGMLNEWEELRQILADDAKIIKECNEQLTQISKELDTKNTVTNSEGHHHHHH | soluble |
| MGHHHHHHSHMVYPEEPFWVLPTVTGFYEDRDYRVNVVEALQEFWQMKQSRGAELKNGALVIYESIPSNSQPYICFVTLPGGSCFGSFQNCPTKAEARRSSAKIALMNSVFNEHPSRRISDEFIQKAVQDARTSFKGTSQINEGTESGIGAFRFMLEANKGRTMLEFQELMTVFQLLHWNGSLKAMRERHCSRQEVVAHYSNRSLDDEMRSQMALDWIAREHDNPGVIRRELVLAERELETFRMAGRELRFPKEKKDILMIAHNQLGGSALNSATIDD | not soluble |
| MIASSPIDAAALRASVAAALDPSTAVATLARFDTHAPRLLDALSTLYGDHADYVTWLPQWLSALGVVAQARPAALRHLDDSRAPGWFGQQDMLGYSAYVDRFAGTLRGVAERVPYLQELGVRYLHLLPFLRARAGDNDGGFAVSDYGQVEPALGSNDDLVALTARLRAANISLCADFVLNHTADDHAWAQAARAGDTRYLDYYHHFADRNAPDQYDTTLVQVFPQTAPGNFTWVDETRQWMWTTFYPYQWDLNWSNPAVFGEMALAMLELANLGVEAFRLDSTAYLWKRPGTNCMNQPEAHTILVALRAVADIVAPSVVMKAEAIVPMAELPPYFGSGVQRGHECHLAYHSTLMAAGWSALALQRGDILQDVIAHSPPLPPNCAWLSYVRCHDDIGWNVLQHEAAGTAAQPPFSLREVAQFYANAVPGSYARGESFQSSGDGVHGTNGMSAALVGVQAAHEHADAAAAARAVDRLVLLYAVSLAMPGVPLIYMGDELALPNDTAYLDDAQRRHEGRWLHRPAMAWELAAQRHDASTLAGTVYTRLRALIRLRAGLPALAATQSLGSVALGDARLFALTRGDSFLAVHNFSDVPLPVDLTQTGHALWAVLDTDGTGDAPEPHTELLLPAYGVRWLQRR | soluble |
| VLQTRNYTCGPAALATVLQRLGVNTTEDELAGLAGTTEEGTTMQGLLEASRAKGMNATGMKLNISELKENMIAYTINDGTGHYTVINEITNDTIKLADPSLGNIEMNIEEFAEIYSGYTLVI | soluble |
| MASMPSRTALSPGVLSPTRPVPNWIARPEYVGKPAAQEGSEPWVQTPEVIEKMRVAGRIAAGALAEAGKAVAPGVTTDELDRIAHEYLVDNGAYPSTLGYKGFPKSCCTSLNEVICHGIPDSTVITDGDIVNIDVTAYIGGVHGDTNATFPAGDVADEHRLLVDRTREATMRAINTVKPGRALSVIGRVIESYANRFGYNVVRDFTGHGIGTTFHNGLVVLHYDQPAVETIMQPGMTFTIEPMINLGALDYEIWDDGWTVVTKDRKWTAQFEHTLLVTDTGVEILTCL | soluble |
| IKQMLLDWCRAKTRGYEHVDIQNFSSSWSDGMAFCALVHNFFPEAFDYGQLSPQNRRQNFEVAFSSAETHADCPQLLDTEDMVRLREPDWKCVYTYIQEFYRCLVQKGLVKTKKS | soluble |
| MSLGSPKSVRIVVVGDKGTGKSSLIVAAATDSFPPNVPPVLPDYKLPIEFFPDGIPVTIVDTSSRPEDRDIVAEELKRADAVVLTYACDRPETLERLSEYWLPELRRLEVKIPIIVAGCKLDFRDDNNQVSLEQVMSPIMQQFREIETCIECSALKQLQAQEVFYYAQKTVLHPTGPLFDQEGHHHHHH | soluble |
| MGHHHHHHSHGLNSSRNLLIISQKSDQILNYITNGADRGATKIPVLGGHTGHSQNMIMTTLSTHEVPKVQEEIQKIDETAFIVIIPASTVMGRGFSLQKDYKSVPNDFINP | soluble |

From the DeepSol protein solubility set
